The supplement of paper PMC11908140

B1: library; numbered along this chain (parent)
chain: MRKPRAAVGSGHRKQAASQEGRQKHAKNNSQAKPSACDGLARQPEEVVLQASVSSYHLFRDVAEVTAFRGSLLSWYDQEKRDLPWRRRAEDEMDLDRRAYAVWVSEVMLQQTQVATVINYYTGWMQKWPTLQDLASASLEEVNQLWAGLGYYSRGRRLQEGARKVVEELGGHMPRTAETLQQLLPGVGRYTAGAIASIAFGQATGVVDGNVARVLCRVRAIGADPSSTLVSQQLWGLAQQLVDPARPGDFNQAAMELGATVCTPQRPLCSQCPVESLCRARQRVEQEQLLASGSLSGSPDVEECAPNTGQCHLCLPPSEPWDQTLGVVNFPRKASRKPPREESSATCVLEQPGALGAQILLVQRPNSGLLAGLWEFPSVTWEPSEQLQRKALLQELQRWAGPLPATHLRHLGEVVHTFSHIKLTYQVYGLALEGQTPVTTVPPGARWLTQEEFHTAAVSTAMKKVFRVYQGQQPGTCMGSKRSQVSSPCSRKKPRMGQQVLDNFFRSHISTDAHSLNSAAQ

Variants of: B1
Experiment: 8OG:A repair function score (normalized; synonymous = 0, nonsense = -1) (normalized log-likelihood score); higher = more repair activity (WT-like)
Details: with 8OG:A DNA repair reporter (GFP) in HEK-293 MUTYH KO cells
Outline: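 After 72 h, viable mCherry+ cells were split into GFP+ (repair) and GFP− bins in three replicates per tile. These cells were MUTYH knockout HEK-293 cells holding lentiviral MUTYH cDNA NNN codon-scan libraries, kept in 10 pg/ml doxycycline and co-transfected with mCherry plus an 8OG:A GFP repair reporter. Sequencing of tile amplicons gave per-tile Rosace fitness scores, normalized into a repair function score anchored on synonymous and nonsense distributions. Synonymous medians were fixed at 0, nonsense at -1, and variants under 300 counts per million at the start were removed.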
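Note: cells sorted at 72 h after reporter transfection.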

8OG:A repair function score of substitutions, site by site:
S483: Y -0.0745
R495: L 0.017 | C -0.00275 | W 0.0272 | Y -0.0924 | H 0.00173 | P 0.0276 | D 0.0213 | T 0.0177 | G -0.0152 | K 0.00711 | S 0.013 | A -0.0255 | I -0.0255 | Q -0.0181 | E 0.0282 | V 0.0193 | M 0.0166 | N -0.129 | F -0.0118
P494: N 0.0224 | I 0.0172 | L -0.00201 | G -0.0242 | Q -0.000555 | S -0.00543 | W -0.0155 | A 0.0124 | Y -0.00726 | M -0.0511 | D -0.00383 | C 0.0281 | E 0.0133 | K -0.0663 | F -0.0209 | R 0.00547 | V -0.0025 | H 0.015 | T 0.0124
R491: W -0.00998 | F 0.0113 | L -0.00252 | K 0.0262 | G 0.00614 | A 0.00371 | I 0.0211 | C -0.013 | M 0.0281 | Y -0.0848 | E 0.0286 | V 0.0088 | Q -0.00572 | P -0.0953 | H 0.0282 | T 0.0121 | N -0.0106 | S 0.00574 | D 0.0052
Q498: A 0.011 | P -0.0275 | S 0.0168 | V 0.00262 | G 0.0187 | K -0.00149 | H -0.0117 | F -0.0629 | Y 0.0174 | D 0.00936 | C -0.0114 | M -0.0277 | N -0.0368 | T 0.0263 | E 0.0145 | W 0.0137 | L -0.00389 | R 0.0169 | I 0.0195
K493: I -0.0174 | A 0.0129 | Q -0.107 | C -0.00147 | D 0.0108 | H 0.0281 | F -0.0124 | Y 0.00504 | R -0.00709 | V -0.0351 | L -0.025 | P 0.0123 | T 0.0143 | E 0.0199 | W 0.00262 | N 0.0279 | M -0.00762 | S 0.0155 | G 0.0135
S486: F 0.00694 | C -0.016 | N 0.00666 | A 0.00239 | E 0.0262 | R -0.0146 | D 0.00623 | W 0.0129 | G 0.0224 | K -0.0131 | P 0.0275 | M -0.00979 | Y 0.00541 | Q -0.0168 | H 0.026 | I -0.0359 | L 0.00981 | T 0.0101 | V -0.00598
M496: R 0.0258 | G -0.00643 | Y 0.00737 | P -3.86e-05 | W -0.045 | D 0.00779 | N 0.00145 | T -0.0187 | F 0.0105 | H 0.0281 | K 0.00764 | A 0.0241 | Q -0.106 | V -0.0328 | C -0.00499 | E 0.00855 | L -0.0124 | S -0.0675 | I -0.0358
V485: K -0.00358 | D 0.0102 | W -0.0552 | Q -0.0322 | E -0.0478 | S 0.0216 | N -0.00234 | A -0.00727 | L 0.0118 | P -0.0106 | F 0.0143 | G -0.0147 | Y -0.0379 | T 0.00314 | M 0.0202 | C 0.0143 | I 0.0128 | H 0.0165 | R 0.0173
Q484: W 0.00872 | V -0.0109 | G 0.00288 | F -0.005 | T 0.0125 | L 0.00769 | A 0.00718 | E 0.022 | D -0.0184 | Y 0.00945 | P 0.0115 | R 0.00822 | K 0.0117 | S -0.0175 | N 0.0201 | M 0.0126 | C -0.0119 | H 0.0028 | I -0.0366
C489: E 0.0219 | V -0.0255 | W 0.0227 | M 0.00595 | R -0.0027 | L 0.0177 | Y 0.00164 | F -0.0128 | I -0.0718 | T 0.00493 | N 0.0265 | A -0.00252 | S 0.0134 | D 0.013 | H 0.0276 | P -0.00598 | Q -0.0376 | K -0.0226 | G 0.00751
V500: L 0.00153 | P -0.0532 | I 0.0202 | N -0.0108 | A 0.00946 | R 0.00797 | C -0.0118 | G 0.00844 | D -0.00453 | S 0.00727 | T 0.02 | H 0.0251 | W -0.015 | Q 0.00719 | K -0.0181 | M 0.0185 | Y -0.00833 | E 0.0219 | F -0.0131
P488: H 0.0202 | S 0.00249 | Q -0.00562 | C -0.0233 | D -0.00371 | V -0.00252 | N 0.00623 | T 0.00629 | Y -0.0629 | A -0.0161 | L 0.00539 | E -0.0239 | M -0.0122 | G 0.0021 | R 0.0168 | W -0.00344 | I 0.0151 | F -0.042 | K 0.0286
S487: G -0.00491 | V 0.0175 | A 0.0181 | L -5.82e-05 | M 0.0121 | D 0.0137 | N 0.0119 | F -0.00307 | R 0.0273 | Y 0.00217 | C 0.0168 | Q -0.00246 | H 0.00963 | W -0.00878 | K 0.0147 | P -0.0175 | T -0.0203 | E 0.00844 | I -0.00284
L501: M 0.0114 | A 0.00122 | K -0.0877 | D 0.00991 | F 0.0198 | I -0.0198 | N -0.0105 | E 0.0149 | H 0.0143 | C -0.00326 | G 0.00711
S490: N 0.0157 | E -0.0309 | W -0.0113 | Q 0.0011 | M -0.0481 | A -0.00415 | F -0.0204 | H -0.00447 | C -0.0291 | V -0.0138 | P -0.0172 | Y -0.00381 | G -0.0115 | D -0.0147 | T 0.0117 | L 0.0149 | R 0.00301 | K 0.00805 | I -0.0509
G497: F -0.0315 | C -0.127 | W 0.0164 | L -0.0147 | M -0.0577 | V -0.00253 | N 0.0269 | P -0.0806 | H -0.0394 | E 0.00606 | A -0.0723 | T -0.00191 | D -0.0474 | I -0.0179 | S -0.0201 | K 0.0129 | Y -0.0861 | R -0.0166
K492: C 0.0201 | F -0.0038 | I 0.0148 | N -0.00159 | T -0.00293 | E 0.022 | Y -0.0316 | V -0.0261 | L -0.0333 | S -0.0044 | H -0.0225 | A 0.0165 | G -0.00555 | W 0.0127 | Q 0.0192 | M 0.015 | P 0.0192 | R -0.0207 | D -0.0117
Q499: F -0.00963 | A -0.02 | R -0.0243 | V 0.0113 | M 0.00183 | E 0.0257 | L 0.00129 | Y -0.045 | C 0.00111 | W -0.0171 | T -0.00713 | G -0.0117 | S 0.00646 | D -0.0217 | I 0.0124 | N -0.0201 | K -0.00715 | H 0.0243 | P 0.0119
